This is an account of results in publication PMC9067375, “Biochemical and crystallization analysis of the CENP-SX–DNA complex” (Acta Crystallographica. Section F, Structural Biology …, 2022).

The test has as its target T1, CENP-S (MHF1), chicken, full-length (Gallus gallus).
T1 construct: CENP-S (MHF1), Gallus gallus, from cDNA; called full-length CENP-S; source: E. coli One Shot BL21(DE3) pLysS RARE2; prepared according to previous reports
T1 chain: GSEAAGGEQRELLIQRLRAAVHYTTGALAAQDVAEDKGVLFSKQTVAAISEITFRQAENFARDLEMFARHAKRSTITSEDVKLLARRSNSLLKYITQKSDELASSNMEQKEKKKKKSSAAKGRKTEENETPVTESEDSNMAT
The experiment in a line: SDS-PAGE of the contents of crystals; crystals grown from the FANCM–CENP-SX pentamer (50 µM) with dsDNA in about 30% 1,4-dioxane, 293 K; crystals, solution and film analysed by 15% SDS–PAGE, Coomassie Brilliant Blue. As to conditions: both partners purified.

B1: CENP-X (MHF2), chicken (natural protein, Gallus gallus)
chain: GYEEREGGFRKETVERLLRLHFRDGRTRVNGDALLLMAELLKVFVREAAARAARQAQAEDLEKVDIEHVEKVLPQLLLDFV
notes: CENP-X (MHF2), Gallus gallus, from cDNA; source: E. coli One Shot BL21(DE3) pLysS RARE2; prepared according to previous reports
As to B1, the binding result was “binds”.
